Measurements taken from paper PMC2856916.

Tests used:
[1] = system: histone octamer H3 K56Ac (smFRET); assay: single-molecule FRET; settings: DNA breathing increased by K56Ac; Binding assay buffers not given in material; array DNA kept in 2 M NaCl, 10 mM TEA, 1 mM EDTA; reconstituted arrays dialysed into 1 mM MgCl2, 10 mM TEA pH 7.4
[2] = system: histone octamer unacetylated H3 (smFRET); assay: single-molecule FRET; settings: reference; Binding assay buffers not given in material; array DNA kept in 2 M NaCl, 10 mM TEA, 1 mM EDTA; reconstituted arrays dialysed into 1 mM MgCl2, 10 mM TEA pH 7.4

mononucleosome DNA for smFRET
binding signal (fold DNA breathing vs unacetylated) [1]: 7
binding signal (fold DNA breathing (reference)) [2]: 1
